In paper PMC7954794, “Protein context shapes the specificity of SH3 domain-mediated interactions in vivo” (Nature Communications, 2021):

System: Abp1 PPIs
Experiment: DHFR-PCA of Abp1 SH3-swapped baits (Fig. 2B-D, S2C, S2F);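 for Protein-protein interaction distance between Abp1 SH3-swapped baits, to ABP1: Euclidean distance between DHFR-PCA score profiles of the baits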;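 for Protein-protein interaction distance between Abp1 SH3-swapped baits, to BEM1-2: Euclidean distance between DHFR-PCA score profiles of the baits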;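 for Protein-protein interaction distance between Abp1 SH3-swapped baits, to BOI1: Euclidean distance between DHFR-PCA score profiles of the baits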;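 for Protein-protein interaction distance between Abp1 SH3-swapped baits, to BZZ1-1: Euclidean distance between DHFR-PCA score profiles of the baits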
Assay type: cell-based, Saccharomyces cerevisiae
Method in brief: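 Yeast DHFR-PCA in which Abp1 baits, carrying their SH3 replaced by CRISPR–Cas9 with one of 27 yeast SH3s or human CTTN, HCLS1 or DBNL SH3s, were mated against 575 SH3-associated DHFR F[3] preys plus 40 negative controls. Four tests were run per PPI. Diploids were selected twice (48 h, 30 °C), then grown 4 days on PCA selection media.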

[1] = number of PPIs, difference, Abp1 SH3-swapped with the listed SH3, Fig2D,S2F

B1: HOF1 (protein, UniProt Q05080 1-669, looked up)
Cytokinesis protein 2: MSYSYEACFWDPNDNGVNILLGHISQGIRSCDSMILFFKQRSELEKDYARRLGAITGKLDKDIGTNMDYGKLNETFNVVLSVEKARAQSHSKQSEILFRQIYTDTKAFAANLQARYTTLSGKIERLRMDKFNKKKGCEVLQKKLQDAQIRFRDLQLNENNMIGAKRVEHNKRELLKWESNSQEYKVQLDVLKQEYKASQKFWIHEWAQLSCELQEMENARISFLQSKLQQFATSSMETYILEQTKMDMLTNHLNSFTAADEISTFSKENGTGRLKHKTSKGDMNSSANWAQMSSISTTSKKTESYMDNIRKLSSQLKETENKRKLASIDKYEKPLPSPEVTMATQFRNSTPVIRNETKVVANPTLSLRSSPVQLQSNVDDSVLRQKPDKPRPIVGEEQLKPDEDSKNPDEKGLMVHKRNQSLSSPSESSSSNPTDFSHIKKRQSMESMTTSVSSMANSIDDSQRFAKSWNSSNRKRKSMSHLQVPSSASSRSDDGGRTPNSAHNLNEDDYNTRRDTSTSTILFKPPVAVRGTSRGHTHRQSMIMQDSSNPIEDALYEMERIQSSSKPGTKTGNIMDERGVVRDRGITVTLPIVTSEGFPVIEYAKAMYPLIGNEAPGLANFHKGDYLLITEIVNKDWYKGEVYDNDRIDRNHRIGLIPYNFIQLLHQGL
Question: B1 was tested. Which “Protein-protein interaction distance between Abp1 SH3-swapped baits, to ABP1” value (Abp1 bait with swapped SH3, distance to bait with ABP1 SH3, sheet Fig2C) did it give?
Answer: 30.98

Question: What about the “Protein-protein interaction distance between Abp1 SH3-swapped baits, to BBC1” value (distance to Abp1 bait with BBC1 SH3, sheet Fig2C) of the same molecule?
Answer: 29.63

Question: What about the “Protein-protein interaction distance between Abp1 SH3-swapped baits, to BEM1-1” value (distance to Abp1 bait with BEM1-1 SH3, sheet Fig2C) of the same molecule?
Answer: 23.16

Question: And the “Protein-protein interaction distance between Abp1 SH3-swapped baits, to BEM1-2” value (distance to Abp1 bait with BEM1-2 SH3, sheet Fig2C)?
Answer: 6.415

Question: And the “Protein-protein interaction distance between Abp1 SH3-swapped baits, to BOI1” value (distance to Abp1 bait with BOI1 SH3, sheet Fig2C)?
Answer: 26.74

Question: What about the “Protein-protein interaction distance between Abp1 SH3-swapped baits, to BOI2” value (distance to Abp1 bait with BOI2 SH3, sheet Fig2C) of the same molecule?
Answer: 25.74

Question: And the “Protein-protein interaction distance between Abp1 SH3-swapped baits, to BUD14” value (distance to Abp1 bait with BUD14 SH3, sheet Fig2C)?
Answer: 21.88

Question: And the “Protein-protein interaction distance between Abp1 SH3-swapped baits, to BZZ1-1” value (distance to Abp1 bait with BZZ1-1 SH3, sheet Fig2C)?
Answer: 30.35

Question: What about the “Protein-protein interaction distance between Abp1 SH3-swapped baits, to BZZ1-2” value (distance to Abp1 bait with BZZ1-2 SH3, sheet Fig2C) of the same molecule?
Answer: 27.6

Question: What about the “Protein-protein interaction distance between Abp1 SH3-swapped baits, to CDC25” value (distance to Abp1 bait with CDC25 SH3, sheet Fig2C) of the same molecule?
Answer: 10.42

Question: What about the “Protein-protein interaction distance between Abp1 SH3-swapped baits, to CTTN” value (distance to Abp1 bait with CTTN SH3, sheet Fig2C) of the same molecule?
Answer: 25.67

Question: What about the “Protein-protein interaction distance between Abp1 SH3-swapped baits, to CYK3” value (distance to Abp1 bait with CYK3 SH3, sheet Fig2C) of the same molecule?
Answer: 10.8

Question: And the “Protein-protein interaction distance between Abp1 SH3-swapped baits, to DBNL” value (distance to Abp1 bait with DBNL SH3, sheet Fig2C)?
Answer: 29.45

Question: What about the “Protein-protein interaction distance between Abp1 SH3-swapped baits, to FUS1” value (distance to Abp1 bait with FUS1 SH3, sheet Fig2C) of the same molecule?
Answer: 21.29

Question: What about the “Protein-protein interaction distance between Abp1 SH3-swapped baits, to HCLS1” value (distance to Abp1 bait with HCLS1 SH3, sheet Fig2C) of the same molecule?
Answer: 32.71

Question: What about the “Protein-protein interaction distance between Abp1 SH3-swapped baits, to HOF1” value (distance to Abp1 bait with HOF1 SH3, sheet Fig2C) of the same molecule?
Answer: 0.00

Question: What about the “Protein-protein interaction distance between Abp1 SH3-swapped baits, to HSE1” value (distance to Abp1 bait with HSE1 SH3, sheet Fig2C) of the same molecule?
Answer: 29.42

Question: And the “Protein-protein interaction distance between Abp1 SH3-swapped baits, to LSB1” value (distance to Abp1 bait with LSB1 SH3, sheet Fig2C)?
Answer: 35.15

Question: What about the “Protein-protein interaction distance between Abp1 SH3-swapped baits, to LSB3” value (distance to Abp1 bait with LSB3 SH3, sheet Fig2C) of the same molecule?
Answer: 34.67

Question: And the “Protein-protein interaction distance between Abp1 SH3-swapped baits, to MYO3” value (distance to Abp1 bait with MYO3 SH3, sheet Fig2C)?
Answer: 33.94

Question: What about the “Protein-protein interaction distance between Abp1 SH3-swapped baits, to MYO5” value (distance to Abp1 bait with MYO5 SH3, sheet Fig2C) of the same molecule?
Answer: 33.29

Question: And the “Protein-protein interaction distance between Abp1 SH3-swapped baits, to NBP2” value (distance to Abp1 bait with NBP2 SH3, sheet Fig2C)?
Answer: 21.63

Question: And the “Protein-protein interaction distance between Abp1 SH3-swapped baits, to PEX13” value (distance to Abp1 bait with PEX13 SH3, sheet Fig2C)?
Answer: 33.79

Question: And the “Protein-protein interaction distance between Abp1 SH3-swapped baits, to PIN3” value (distance to Abp1 bait with PIN3 SH3, sheet Fig2C)?
Answer: 32.38

Question: And the “Protein-protein interaction distance between Abp1 SH3-swapped baits, to RVS167” value (distance to Abp1 bait with RVS167 SH3, sheet Fig2C)?
Answer: 32.19

Question: What about the “Protein-protein interaction distance between Abp1 SH3-swapped baits, to SDC25” value (distance to Abp1 bait with SDC25 SH3, sheet Fig2C) of the same molecule?
Answer: 7.905

Question: What about the “Protein-protein interaction distance between Abp1 SH3-swapped baits, to SHO1” value (distance to Abp1 bait with SHO1 SH3, sheet Fig2C) of the same molecule?
Answer: 29.05

Question: What about the “Protein-protein interaction distance between Abp1 SH3-swapped baits, to SLA1-1” value (distance to Abp1 bait with SLA1-1 SH3, sheet Fig2C) of the same molecule?
Answer: 9.015

Question: And the “Protein-protein interaction distance between Abp1 SH3-swapped baits, to SLA1-2” value (distance to Abp1 bait with SLA1-2 SH3, sheet Fig2C)?
Answer: 20.72

Question: What about the “Protein-protein interaction distance between Abp1 SH3-swapped baits, to SLA1-3” value (distance to Abp1 bait with SLA1-3 SH3, sheet Fig2C) of the same molecule?
Answer: 35.48

Question: And the “Protein-protein interaction distance between Abp1 SH3-swapped baits, to YSC84” value (distance to Abp1 bait with YSC84 SH3, sheet Fig2C)?
Answer: 34.92

Question: What about the “PPIs gained by Abp1 - SH3-dependent PPIs gained by Abp1” value [1] of the same molecule?
Answer: 1

Question: What about the “SH3-dependent PPIs - SH3-dependent PPIs gained by Abp1” value [1] of the same molecule?
Answer: 4

Question: And the “SH3-dependent PPIs gained by Abp1” value (number of PPIs, Abp1 SH3-swapped with the listed SH3, DHFR-PCA, Fig2D,S2F)?
Answer: 0
